Assay results reported in patent publication US20160194355A1 (MARUHA NICHIRO, published 2016).

Molecular target: dipeptidyl peptidase-IV (DPPIV) (Human, recombinant; manufactured by Biomol) (Human, UniProt P27487 39-766, limits assumed)
Assay: cell-based or functional assay

Chain of dipeptidyl peptidase-IV (DPPIV) (Human, recombinant; manufactured by Biomol) (P27487 39-766 limits assumed): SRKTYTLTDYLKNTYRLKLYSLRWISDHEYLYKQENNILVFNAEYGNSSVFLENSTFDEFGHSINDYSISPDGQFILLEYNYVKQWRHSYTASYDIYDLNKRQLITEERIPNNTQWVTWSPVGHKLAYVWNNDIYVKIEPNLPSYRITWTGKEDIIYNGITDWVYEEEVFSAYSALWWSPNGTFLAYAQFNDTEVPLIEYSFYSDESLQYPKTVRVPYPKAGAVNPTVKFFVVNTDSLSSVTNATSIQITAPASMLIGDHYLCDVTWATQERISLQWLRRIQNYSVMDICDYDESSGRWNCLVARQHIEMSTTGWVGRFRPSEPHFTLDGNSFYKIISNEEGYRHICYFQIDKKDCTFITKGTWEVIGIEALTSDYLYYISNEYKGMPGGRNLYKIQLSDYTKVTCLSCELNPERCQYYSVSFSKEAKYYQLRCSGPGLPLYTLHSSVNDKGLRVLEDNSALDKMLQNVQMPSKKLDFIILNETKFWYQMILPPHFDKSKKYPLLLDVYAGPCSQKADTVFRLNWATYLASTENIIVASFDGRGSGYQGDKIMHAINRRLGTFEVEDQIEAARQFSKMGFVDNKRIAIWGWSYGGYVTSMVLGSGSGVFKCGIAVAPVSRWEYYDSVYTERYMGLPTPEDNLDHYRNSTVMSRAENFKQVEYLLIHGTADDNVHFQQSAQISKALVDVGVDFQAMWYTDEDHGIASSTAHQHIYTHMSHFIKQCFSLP

IC50 Value (µM), DPPIV inhibitory activity (enzyme activity on H-Gly-Pro-AMC substrate, fluorescence) [µM] | Binder
> 100 | VLP [Val-Leu-Pro (VLP)]
> 100 | IIP [Ile-Ile-Pro (IIP)]
> 100 | FP [Phe-Pro (FP)]
26 | IPL [Ile-Pro-Leu (IPL)]
88 | LPF [Leu-Pro-Phe (LPF)]
82 | LPL [Leu-Pro-Leu (LPL)]
3 | IPI [Ile-Pro-Ile (IPI)]
3 | VPI [Val-Pro-Ile (VPI)]
46 | LPVL [Leu-Pro-Val-Leu (LPVL)]
40 | FPVG [Phe-Pro-Val-Gly (FPVG)]
> 100 | WLP [Trp-Leu-Pro (WLP)]
19 | VPL [Val-Pro-Leu (VPL)]
66 | IP [Ile-Pro (IP)]
> 100 | IVP [Ile-Val-Pro (IVP)]
> 100 | WIP [Trp-Ile-Pro (WIP)]
> 100 | LP [Leu-Pro (LP)]
> 100 | VIP [Val-Ile-Pro (VIP)]
